In US20230025732A1 (INNATE PHARMA, published 2023):
Changes are numbered by the printed parent chain. Names may count otherwise. One block for each binder: values may come before it.

Key:
[1] = target: T1, human CD39 expressed at the cell surface (human, UniProt P49961 1-510); test: flow cytometry, CHO cells expressing human CD39
T1 construct: On CHO transfectants, Hek-293T transfectants, Ramos and Mino tumor cells; also called huCD39; CHO-huCD39
T1 sequence: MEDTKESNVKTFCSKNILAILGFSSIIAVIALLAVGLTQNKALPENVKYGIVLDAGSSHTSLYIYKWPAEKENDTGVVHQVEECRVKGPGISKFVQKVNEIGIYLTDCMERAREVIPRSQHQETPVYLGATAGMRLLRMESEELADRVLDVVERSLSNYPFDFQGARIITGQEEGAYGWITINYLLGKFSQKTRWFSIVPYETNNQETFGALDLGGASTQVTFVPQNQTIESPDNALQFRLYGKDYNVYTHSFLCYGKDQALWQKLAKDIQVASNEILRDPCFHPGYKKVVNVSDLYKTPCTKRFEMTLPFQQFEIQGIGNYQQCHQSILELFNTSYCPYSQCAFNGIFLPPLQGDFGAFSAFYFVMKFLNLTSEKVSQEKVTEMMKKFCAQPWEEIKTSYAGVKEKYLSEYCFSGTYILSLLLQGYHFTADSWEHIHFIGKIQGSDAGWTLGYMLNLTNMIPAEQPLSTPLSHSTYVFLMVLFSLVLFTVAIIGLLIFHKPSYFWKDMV
Experimental: Cells were incubated with various concentration of unlabeled anti-CD39 antibody from 30 μg/ml to 5×10⁻⁴ μg/ml, for 30 minutes at 4° C. After washes, cells were incubated with Goat anti-mouse H+L labeled secondary antibody for 30 min at 4° C.
Antibodies mAb1-21 were assessed for binding to CD39 by flow cytometry as described in Example 7, using CHO cells expressing human CD39 and CHO cells expressing cynomolgus (Macaca fascicularis) CD39.

[2] = target: T1, human CD39 expressed at the cell surface; test: flow cytometry titration on Ramos lymphoma cells (Mean of Fluorescence), panel L1

B3: mAb17 H3*L1 (antibody, human IgG1, V domains shown)
VH: QVQLVQSGAEVKKPGASVKVSCKASGYTFTDYNMHWVRQAPGQRLEWIGYIVPLNGGSTFSQKFQGRATITVDTSASTAYMELSSLRSEDTAVYYCARGGTRFAYWGQGTLVTVSS
VL: DIVMTQSPDSLAVSLGERATINCRASESVDNFGVSFMYWFQQKPGQPPKLLIYGASNQGSGVPDRFSGSGSGTDFTLTISSLQAEDVAVYYCQQTKEVPYTFGGGTKVEIK
- binding result [1]: binds

B4: mAb11 H2*L1 (antibody, human IgG1, V domains shown)
VH: B3 VH with I48M, Q65K
VL: B3 VL
- binding result [1]: binds

Results, then the binder that gave them:

- binding result [1]: binds
B1: mAb2 H0L1 (antibody, human IgG1, V domains shown)
VH: B3 VH with I48M, S61N, Q65K, A68V, V72R
VL: B3 VL

- EC50 (read off the curve) [2]: ~0.8 µg/mL
B2: mAb20 H4L1 (antibody, human IgG1, kappa, V domains shown)
VH: B3 VH with S61N, Q65K, S77R
VL: DIVMTQSPDSLAVSLGERATINCRASESVDNFGVSFMYWFQQKPGQPPKLLIYGASNQGSGVPDRFSGSGSGTDFTLTISSLQAEDVAVYYCQQTKEVPYTFGGGTKVEIKR
notes: full heavy chain carries L234A/L235E/G237A/A330S/P331S
